What all share (assay): EMSA; glutaraldehyde-fixed; ssDNA EMSA: 10 nM DNA, 50 mM potassium phosphate pH 6.0, 5 mM EDTA, 5% glycerol, 0.1 mg/ml BSA, 37°C, 40 min, then 0.1% glutaraldehyde; second-strand EMSA: 5 nM each strand, 20 mM Tris-HCl pH 7.5, 5 mM MgCl2, 1 mM DTT, 0.1 mg/ml BSA, 37°C
For one data set, the target named is T1, Redβ K172A (Bacteriophage λ (Enterobacteria phage λ), UniProt P03698 1-261, K172A).
T1 sequence: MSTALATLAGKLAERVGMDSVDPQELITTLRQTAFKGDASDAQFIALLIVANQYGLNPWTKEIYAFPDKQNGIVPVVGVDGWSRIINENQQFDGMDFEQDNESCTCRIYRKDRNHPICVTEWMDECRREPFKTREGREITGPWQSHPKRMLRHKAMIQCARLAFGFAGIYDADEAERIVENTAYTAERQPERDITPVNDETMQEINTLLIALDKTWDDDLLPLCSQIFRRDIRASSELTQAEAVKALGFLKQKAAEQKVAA
The conditions noted are these: protein: recombinant; tags: His6 removed; N-terminal GSH left; label: 5' Cy3.

A further data set addresses T2, Redβ K69A (Bacteriophage λ (Enterobacteria phage λ), UniProt P03698 1-261, K69A).
T2 sequence: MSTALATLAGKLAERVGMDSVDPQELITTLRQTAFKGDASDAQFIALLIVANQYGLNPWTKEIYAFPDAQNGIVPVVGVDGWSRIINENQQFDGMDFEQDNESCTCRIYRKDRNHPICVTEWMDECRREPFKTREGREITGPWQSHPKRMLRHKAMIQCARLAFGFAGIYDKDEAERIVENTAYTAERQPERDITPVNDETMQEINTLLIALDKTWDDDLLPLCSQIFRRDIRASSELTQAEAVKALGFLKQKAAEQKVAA
The conditions noted are these: protein: recombinant; tags: His6 removed; N-terminal GSH left; label: 5' Cy3.

The target in the next data set is T3, Redβ K148A (Bacteriophage λ (Enterobacteria phage λ), UniProt P03698 1-261, K148A).
T3 sequence: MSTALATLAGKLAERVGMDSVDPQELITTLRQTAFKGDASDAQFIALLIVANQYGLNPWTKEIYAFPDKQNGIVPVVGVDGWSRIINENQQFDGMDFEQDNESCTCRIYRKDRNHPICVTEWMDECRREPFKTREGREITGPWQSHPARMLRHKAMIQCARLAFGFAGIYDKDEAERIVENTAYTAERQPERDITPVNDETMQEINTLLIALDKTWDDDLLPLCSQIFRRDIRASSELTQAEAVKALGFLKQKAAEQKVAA
The conditions noted are these: protein: recombinant; tags: His6 removed; N-terminal GSH left; label: 5' Cy3.

A further data set addresses T4, Redβ R161A (Bacteriophage λ (Enterobacteria phage λ), UniProt P03698 1-261, R161A).
T4 sequence: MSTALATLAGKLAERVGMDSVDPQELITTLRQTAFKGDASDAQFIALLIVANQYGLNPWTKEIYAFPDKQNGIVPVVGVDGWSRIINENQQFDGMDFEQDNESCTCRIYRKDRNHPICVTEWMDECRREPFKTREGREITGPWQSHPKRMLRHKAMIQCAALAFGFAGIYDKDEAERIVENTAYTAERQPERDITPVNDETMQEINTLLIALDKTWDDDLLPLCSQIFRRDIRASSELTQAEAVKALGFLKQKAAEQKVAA
The conditions noted are these: protein: recombinant; tags: His6 removed; N-terminal GSH left; label: 5' Cy3.

Another data set concerns the target T5, Redβ R149A (Bacteriophage λ (Enterobacteria phage λ), UniProt P03698 1-261, R149A).
T5 sequence: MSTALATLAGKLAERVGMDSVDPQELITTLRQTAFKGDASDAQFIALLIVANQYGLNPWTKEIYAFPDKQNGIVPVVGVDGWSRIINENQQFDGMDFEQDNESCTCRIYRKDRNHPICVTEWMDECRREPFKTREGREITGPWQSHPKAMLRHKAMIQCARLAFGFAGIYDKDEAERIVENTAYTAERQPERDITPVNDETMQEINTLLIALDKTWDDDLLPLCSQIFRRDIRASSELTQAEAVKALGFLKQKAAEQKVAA
The conditions noted are these: protein: recombinant; tags: His6 removed; N-terminal GSH left; label: 5' Cy3.

A further data set addresses T6, Redβ WT (Bacteriophage λ (Enterobacteria phage λ), UniProt P03698 1-261).
T6 sequence: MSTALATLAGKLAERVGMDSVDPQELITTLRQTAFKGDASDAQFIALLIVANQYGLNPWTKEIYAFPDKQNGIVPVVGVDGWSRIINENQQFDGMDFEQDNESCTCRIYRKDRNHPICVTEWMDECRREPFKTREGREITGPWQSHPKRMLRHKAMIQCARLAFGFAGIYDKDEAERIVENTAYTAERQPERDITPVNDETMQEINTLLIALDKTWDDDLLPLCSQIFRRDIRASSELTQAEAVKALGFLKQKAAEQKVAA
The conditions noted are these: protein: recombinant; tags: N-terminal His6 removed by thrombin; Gly-Ser-His left before Met1; label: 5' Cy3.

Take TGCGGATGGCTTAGAGCTTAATTGCTGAATCTGGTGCTGTAGCTCAACAT (ssDNA) [50-minus ssDNA]: the binding signal with Redβ K172A is 76 % of WT binding at 3 µM protein; with Redβ K69A, 94 % of WT binding at 3 µM protein; with Redβ K148A, 43 % of WT binding at 3 µM protein; in the data set with Redβ R161A, 11 % of WT binding at 3 µM protein; with Redβ R149A, 44 % of WT binding at 3 µM protein. In the data set with Redβ WT, the binding result is recorded as “binds”.

The values are drawn from paper PMC3823998, “Structural and Functional Characterization of the Redβ Recombinase from Bacteriophage λ” (PLoS ONE, 2013).
